Reference: paper PMC3897375, “Def1 Promotes the Degradation of Pol3 for Polymerase Exchange to Occur During DNA-Damage–Induced Mutagenesis in Saccharomyces cerevisiae” (PLoS Biology, 2014)

Key:
Rev1 = molecular target: T1, Rev1 (S. cerevisiae, UniProt P12689 1-985); experiment: pull-down; GST–Pol32 (3 µg) or GST immobilised on glutathione–Sepharose beads, incubated with purified Pol31 (5 µg) and Rev1 (3 µg) together, overnight on ice; 50 mM Tris/HCl pH 7.5, 150 mM NaCl, 1 mM EDTA, 1 mM DTT, 10% glycerol, 0.01% Nonidet P-40; five washes, elution with 20 mM glutathione, SDS-PAGE; details: both partners purified
T1 construct: Rev1, translesion synthesis DNA polymerase, S. cerevisiae; also called TLS polymerase Rev1; purified Rev1; source: S. cerevisiae BJ5464, overexpressed, purified on glutathione–Sepharose 4B beads, eluted by PreScission protease cleavage; not shown: GST, N-terminal, cleaved
T1 sequence (looked up): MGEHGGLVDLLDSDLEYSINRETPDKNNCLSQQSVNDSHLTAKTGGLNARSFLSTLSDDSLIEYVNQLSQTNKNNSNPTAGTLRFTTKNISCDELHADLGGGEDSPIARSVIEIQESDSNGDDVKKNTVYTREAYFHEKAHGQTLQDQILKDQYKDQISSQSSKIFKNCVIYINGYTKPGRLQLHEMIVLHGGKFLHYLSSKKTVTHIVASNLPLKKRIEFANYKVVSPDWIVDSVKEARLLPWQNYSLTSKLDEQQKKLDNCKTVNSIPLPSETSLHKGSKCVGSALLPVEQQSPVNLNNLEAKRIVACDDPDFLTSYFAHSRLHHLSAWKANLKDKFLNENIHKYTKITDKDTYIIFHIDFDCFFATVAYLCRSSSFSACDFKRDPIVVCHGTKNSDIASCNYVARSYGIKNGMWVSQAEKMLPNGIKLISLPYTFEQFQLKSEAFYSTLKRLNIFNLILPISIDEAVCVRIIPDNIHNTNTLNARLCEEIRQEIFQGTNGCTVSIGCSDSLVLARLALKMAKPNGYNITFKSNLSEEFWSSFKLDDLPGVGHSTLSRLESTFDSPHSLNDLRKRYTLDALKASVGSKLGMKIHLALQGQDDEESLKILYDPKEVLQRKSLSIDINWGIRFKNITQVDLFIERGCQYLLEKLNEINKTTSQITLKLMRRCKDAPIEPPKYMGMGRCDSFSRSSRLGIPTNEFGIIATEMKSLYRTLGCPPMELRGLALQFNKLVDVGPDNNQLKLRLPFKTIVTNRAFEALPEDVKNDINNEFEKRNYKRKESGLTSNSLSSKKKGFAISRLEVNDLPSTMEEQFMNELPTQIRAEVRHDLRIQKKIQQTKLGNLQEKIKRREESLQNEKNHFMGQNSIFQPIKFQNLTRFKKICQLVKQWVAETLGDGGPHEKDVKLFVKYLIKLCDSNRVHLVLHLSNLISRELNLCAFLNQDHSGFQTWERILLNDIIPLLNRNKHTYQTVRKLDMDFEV

Pol31 = molecular target: T2, Pol31 (S. cerevisiae, UniProt P46957 1-487); experiment: as above; details: both partners purified
T2 construct: Pol31, noncatalytic subunit of DNA polymerase delta, S. cerevisiae; also called purified Pol31; source: S. cerevisiae BJ5464, overexpressed, purified on glutathione–Sepharose 4B beads, eluted by PreScission protease cleavage; not shown: GST, N-terminal, cleaved
T2 sequence (looked up): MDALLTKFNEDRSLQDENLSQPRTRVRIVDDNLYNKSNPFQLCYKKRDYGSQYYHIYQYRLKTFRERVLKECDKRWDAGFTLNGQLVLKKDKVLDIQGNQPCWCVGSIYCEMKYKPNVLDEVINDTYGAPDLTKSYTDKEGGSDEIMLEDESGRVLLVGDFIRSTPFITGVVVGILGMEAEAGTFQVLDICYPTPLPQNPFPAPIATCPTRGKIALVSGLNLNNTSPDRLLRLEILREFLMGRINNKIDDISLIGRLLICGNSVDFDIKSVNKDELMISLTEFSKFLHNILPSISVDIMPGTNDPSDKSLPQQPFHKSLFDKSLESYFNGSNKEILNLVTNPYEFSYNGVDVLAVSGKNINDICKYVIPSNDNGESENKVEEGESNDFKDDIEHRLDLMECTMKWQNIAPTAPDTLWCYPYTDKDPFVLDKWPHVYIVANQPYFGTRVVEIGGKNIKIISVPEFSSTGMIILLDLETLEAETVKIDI

B1: GST–Pol32 (natural protein, S. cerevisiae, UniProt P47110 1-350, looked up)
chain: MDQKASYFINEKLFTEVKPVLFTDLIHHLKIGPSMAKKLMFDYYKQTTNAKYNCVVICCYKDQTIKIIHDLSNIPQQDSIIDCFIYAFNPMDSFIPYYDIIDQKDCLTIKNSYELKVSESSKIIERTKTLEEKSKPLVRPTARSKTTPEETTGRKSKSKDMGLRSTALLAKMKKDRDDKETSRQNELRKRKEENLQKINKQNPEREAQMKELNNLFVEDDLDTEEVNGGSKPNSPKETDSNDKDKNNDDLEDLLETTAEDSLMDVPKIQQTKPSETEHSKEPKSEEEPSSFIDEDGYIVTKRPATSTPPRKPSPVVKRALSSSKKQETPSSNKRLKKQGTLESFFKRKAK
notes: Pol32, noncatalytic subunit of DNA polymerase delta, S. cerevisiae; source: S. cerevisiae BJ5464, overexpressed, purified on glutathione–Sepharose 4B beads; not shown: GST, N-terminal, kept
B1: binds (Rev1); binds (Pol31).
